Laboratory results: publication PMC7116888 (Nature, 2020)

Experiments:
cryo-EM structure = biological target: the molecule itself; assay: cryo-EM structure
[1] = biological target: T1, α-factor-bound Ste2 (Ste2 dimer purified with α-factor) (Saccharomyces cerevisiae, UniProt D6VTK4 1-431, N-acetylglucosamine modelled at Asn25); assay: cryo-EM structure
[2] = biological target: T2, Ste4-Ste18 dimer (βγ dimer) (Saccharomyces cerevisiae, UniProt P18851 1-423; P18852 1-110, C106S | C107S); assay: SEC
T2 sequence (looked up) 1: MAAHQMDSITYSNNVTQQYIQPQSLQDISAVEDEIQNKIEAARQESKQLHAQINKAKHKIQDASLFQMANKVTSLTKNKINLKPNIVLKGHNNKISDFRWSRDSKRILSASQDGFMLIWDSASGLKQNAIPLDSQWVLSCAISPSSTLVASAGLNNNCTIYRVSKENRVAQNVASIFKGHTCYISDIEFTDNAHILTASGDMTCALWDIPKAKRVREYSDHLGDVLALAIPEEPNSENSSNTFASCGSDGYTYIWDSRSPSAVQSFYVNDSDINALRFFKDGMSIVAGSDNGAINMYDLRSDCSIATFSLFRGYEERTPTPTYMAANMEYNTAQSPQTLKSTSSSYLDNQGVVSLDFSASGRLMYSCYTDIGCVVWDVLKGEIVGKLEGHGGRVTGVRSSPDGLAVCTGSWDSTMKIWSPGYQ
T2 sequence (looked up) 2: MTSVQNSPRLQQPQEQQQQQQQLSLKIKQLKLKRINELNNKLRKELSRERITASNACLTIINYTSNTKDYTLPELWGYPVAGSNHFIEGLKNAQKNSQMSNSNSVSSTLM

[3] = biological target: T1, α-factor-bound Ste2 (Ste2 dimer …); assay: SEC-MALS

B1: Ste2 (wild-type Saccharomyces cerevisiae pheromone receptor, residues 1-431), purified (receptor, UniProt D6VTK4 1-431, looked up)
chain: MSDAAPSLSNLFYDPTYNPGQSTINYTSIYGNGSTITFDELQGLVNSTVTQAIMFGVRCGAAALTLIVMWMTSRSRKTPIFIINQVSLFLIILHSALYFKYLLSNYSSVTYALTGFPQFISRGDVHVYGATNIIQVLLVASIETSLVFQIKVIFTGDNFKRIGLMLTSISFTLGIATVTMYFVSAVKGMIVTYNDVSATQDKYFNASTILLASSINFMSFVLVVKLILAIRSRRFLGLKQFDSFHILLIMSCQSLLVPSIIFILAYSLKPNQGTDVLTTVATLLAVLSLPLSSMWATAANNASKTNTITSDFTTSTDRFYPGTLSSFQTDSINNDAKSSLRSRLYDLYPRRKETTSDKHSERTFVSETADDIEKNQFYQLPTPTSSKNTRIGPFADASYKEGEVEPVDMYTPDTAADEEARKFWTEDNNNL
modifications: N-acetylglucosamine modelled at Asn25
cryo-EM structure
  stoichiometry N: 2

B2: mini-Gpa1 heterotrimer (mini-Gpa1-Ste4-Ste18) (complex, Saccharomyces cerevisiae)
chain 1: TVSTQTIGDESDPFLQNKRANDVIEQSLQLEKQRDKNEIKLLLLGADNSGKSTVLKQLKLLHGGSGGSGGTTGITETEFNIGSSKFKVLDAGGQRSERKKWIHCFEGITAVLFVLDMSDYNRMHESIMLFDTLLNSKWFKDTPFILFLNKIDLFEEKVKSMPIRKYFPDYQGRVGDAEAGLKYFEKIFLSLNKTNKPIYVKRTCATDTQTAKFILSAVTDLIIQQNLKKIGII
chain 2: T2 sequence (looked up) 1
chain 3: T2 sequence (looked up) 2
[1]
  stoichiometry N: 2 G protein heterotrimers per Ste2 homodimer

B3: wild type Gpa1 (S. cerevisiae G protein α-subunit) (natural protein, Saccharomyces cerevisiae, UniProt P08539 1-472, looked up)
chain: MGCTVSTQTIGDESDPFLQNKRANDVIEQSLQLEKQRDKNEIKLLLLGAGESGKSTVLKQLKLLHQGGFSHQERLQYAQVIWADAIQSMKILIIQARKLGIQLDCDDPINNKDLFACKRILLKAKALDYINASVAGGSDFLNDYVLKYSERYETRRRVQSTGRAKAAFDEDGNISNVKSDTDRDAETVTQNEDADRNNSSRINLQDICKDLNQEGDDQMFVRKTSREIQGQNRRNLIHEDIAKAIKQLWNNDKGIKQCFARSNEFQLEGSAAYYFDNIEKFASPNYVCTDEDILKGRIKTTGITETEFNIGSSKFKVLDAGGQRSERKKWIHCFEGITAVLFVLAMSEYDQMLFEDERVNRMHESIMLFDTLLNSKWFKDTPFILFLNKIDLFEEKVKSMPIRKYFPDYQGRVGDAEAGLKYFEKIFLSLNKTNKPIYVKRTCATDTQTMKFVLSAVTDLIIQQNLKKIGII
[2]
  binding result: binds

B4: wild type Gpa1 heterotrimer (Gpa1-Ste4-Ste18) (complex, Saccharomyces cerevisiae)
chain 1: B3 chain
chain 2: T2 sequence (looked up) 1
chain 3: T2 sequence (looked up) 2
[3]
  stoichiometry N: 2 G proteins per Ste2 dimer
